Source: the Human Domainome abundance scans (Beltran et al. 2025)

B1: LIM and senescent cell antigen-like-containing domain protein 2, residues 13 to 71; numbered along this chain, Q7Z4I7 (parent)
chain: AVCQRCQARFSPAERIVNSNGELYHEHCFVCAQCFRPFPEGLFYEFEGRKYCEHDFQML

Variants of: B1
Test: abundance fitness (aPCA) (normalised: wild type 0, dead -1); higher = more abundant; growth selection in yeast, the domain comes from the species named
Details: Homo sapiens

Abundance fitness: each site, then its substitutions
M58: A -0.004
R49: I -0.101; K 0.029; V -0.123; N -0.482; D -0.413; E -0.205; A -0.057; M -0.102; C -0.011; Y -0.328; G -0.257; F -0.245; L -0.169; T -0.066
H54: C 0.074; A 0.064; V 0.036; S 0.094; L -0.017; Y -0.061; K 0.117; I 0.14; Q 0.045; P 0.034; N 0.137; T 0.235; W -0.157; G 0.027; F -0.01; E 0.189; R 0.108
E40: D -0.018; W -0.31; N -0.236; V -0.266; Y -0.212; A -0.098; L -0.068; K -0.039; H 0.023; T -0.15; I -0.752; G -0.158; Q -0.105
P37: A -0.187; C -0.171; S -0.016; D -0.217; G -0.328; V -0.193; W -0.371; T -0.148; K -0.214; H -0.445; Y -0.14; I -0.23; L -0.349; Q -0.343; M -0.198; E 0.042; F -0.192
Q57: C -0.352; T -0.121; E -0.052; S -0.145; R 0.107; H 0.056; N 0.062; I -0.295; V -0.156; G 0.118; W -0.28; K 0.006; L -0.331; D -0.264; Y -0.586; A -0.077; F -0.346
Y44: K -0.03; R -0.033; T -0.253; W -0.145; I -0.046; Q -0.019; E -0.086; H 0.024; M -0.114; C -0.009; G -0.324; A -0.404; D -0.259; S -0.342; P -0.941; L -0.247; N 0.088; F 0.002
F46: Q -0.272; K -0.173; A -0.039; N -0.202; L 0.029; G -0.465; M -0.241; W 0.014; H 0.114; C -0.127; V -0.05; P -0.902; E -0.286; R -0.271; D -0.217; I -0.446
L42: G -0.108; W -0.302; A 0.02; V -0.026; F -0.301; S -0.064; E 0.083; T 0.07; K 0.047; D -0.023; R 0.006; C -0.062; Q -0.092; P -0.357; M 0.045; N -0.012; H -0.198; I 0.112
E53: W -0.186; T -0.235; L -0.207; R -0.027; I -0.147; K -0.21; M -0.286; A -0.216; H 0.061; G -0.25; D 0.169; C -0.38; P -0.359; V -0.39; N 0.01; F -0.064
K50: D -0.473; V -0.091; P -0.177; N 0.185; Q -0.032; M 0.168; Y -0.104; F -0.3; E -0.263; A -0.2; W -0.191; G -0.212; L 0.005; H -0.225; R -0.05; T -0.047; S -0.216
G48: M -0.398; R -0.083; P -0.686
